Measured values taken from article PMC9482650, “Quantitative fragmentomics allow affinity mapping of interactomes” (Nature Communications, 2022).

How the values were obtained:
Experiment in all cases: holdup assay
Set-up in all cases: key: below the threshold = too weak to quantify, mostly under pKd 3.1 to 4
SCRIB_1, Q14160 = molecular target: SCRIB_1, Q14160
PARD3B_1, Q8TEW8 = molecular target: T1, PARD3B_1, Q8TEW8
T1 sequence (Q8TEW8 196-299, limits assumed, looked up): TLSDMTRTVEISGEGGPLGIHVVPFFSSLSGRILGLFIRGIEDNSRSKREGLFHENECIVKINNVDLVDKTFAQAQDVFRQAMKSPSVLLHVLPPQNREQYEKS

GRID2IP_1, A4D2P6 = molecular target: GRID2IP_1, A4D2P6
TJP2_1, Q9UDY2 = molecular target: TJP2_1, Q9UDY2
CASK, O14936 = molecular target: CASK, O14936
DFNB31_1, Q9P202 = molecular target: T2, DFNB31_1, Q9P202
T2 sequence (Q9P202 135-233, limits assumed, looked up): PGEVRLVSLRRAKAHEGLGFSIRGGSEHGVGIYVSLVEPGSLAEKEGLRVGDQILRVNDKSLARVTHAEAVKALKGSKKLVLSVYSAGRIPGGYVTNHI

FRMPD1, Q5SYB0 = molecular target: T3, FRMPD1, Q5SYB0
T3 sequence (Q5SYB0 52-145, limits assumed, looked up): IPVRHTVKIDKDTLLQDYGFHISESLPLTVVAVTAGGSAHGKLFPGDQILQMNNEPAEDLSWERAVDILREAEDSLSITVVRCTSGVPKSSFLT

DLG3_1, Q92796 = molecular target: T4, DLG3_1, Q92796
T4 sequence (Q92796 125-227, limits assumed, looked up): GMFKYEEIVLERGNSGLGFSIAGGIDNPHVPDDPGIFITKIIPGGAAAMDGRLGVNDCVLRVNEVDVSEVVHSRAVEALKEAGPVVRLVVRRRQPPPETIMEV

IL16_3, Q14005 = molecular target: IL16_3, Q14005
DLG2_3, Q15700 = molecular target: DLG2_3, Q15700
MPDZ_5, O75970 = molecular target: T5, MPDZ_5, O75970
T5 sequence (O75970 695-796, limits assumed, looked up): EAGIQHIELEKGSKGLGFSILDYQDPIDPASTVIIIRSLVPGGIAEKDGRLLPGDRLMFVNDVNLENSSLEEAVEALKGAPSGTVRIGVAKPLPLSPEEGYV

GRIP2_3, Q9C0E4 = molecular target: GRIP2_3, Q9C0E4
Inadl_10, Q8NI35 = molecular target: Inadl_10, Q8NI35
DFNB31_2, Q9P202 = molecular target: T6, DFNB31_2, Q9P202
T6 sequence (Q9P202 274-371, limits assumed, looked up): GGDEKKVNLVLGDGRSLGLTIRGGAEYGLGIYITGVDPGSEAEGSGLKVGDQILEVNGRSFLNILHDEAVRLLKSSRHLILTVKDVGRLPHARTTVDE

GRASP, Q7Z6J2 = molecular target: GRASP, Q7Z6J2
MAGI1_1, Q96QZ7 = molecular target: MAGI1_1, Q96QZ7
PDLIM1, O00151 = molecular target: PDLIM1, O00151
LIN7A, O14910 = molecular target: T7, LIN7A, O14910
T7 sequence (O14910 103-200, limits assumed, looked up): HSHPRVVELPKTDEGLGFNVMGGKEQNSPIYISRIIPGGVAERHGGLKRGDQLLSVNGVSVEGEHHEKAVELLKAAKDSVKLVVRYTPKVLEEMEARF

MAGI2_3, Q86UL8 = molecular target: MAGI2_3, Q86UL8
Inadl_5, Q8NI35 = molecular target: Inadl_5, Q8NI35
NHERF3_1, Q5T2W1 = molecular target: T8, NHERF3_1, Q5T2W1
T8 sequence (Q5T2W1 4-100, limits assumed, looked up): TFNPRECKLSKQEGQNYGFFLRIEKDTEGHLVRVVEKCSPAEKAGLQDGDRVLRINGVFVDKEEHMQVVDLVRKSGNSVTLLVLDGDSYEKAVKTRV

GIPC2, Q8TF65 = molecular target: GIPC2, Q8TF65
Inadl_1, Q8NI35 = molecular target: Inadl_1, Q8NI35
MPDZ_10, O75970 = molecular target: T9, MPDZ_10, O75970
T9 sequence (O75970 1624-1722, limits assumed, looked up): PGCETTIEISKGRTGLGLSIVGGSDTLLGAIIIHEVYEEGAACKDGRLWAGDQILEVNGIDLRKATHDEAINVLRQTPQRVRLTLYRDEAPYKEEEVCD

FRMPD2_3, Q68DX3 = molecular target: FRMPD2_3, Q68DX3
RADIL, Q96JH8 = molecular target: T10, RADIL, Q96JH8
T10 sequence (Q96JH8 971-1071, limits assumed, looked up): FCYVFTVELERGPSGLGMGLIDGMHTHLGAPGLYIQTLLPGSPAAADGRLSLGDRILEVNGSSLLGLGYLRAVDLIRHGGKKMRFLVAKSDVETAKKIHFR

SCRIB_2, Q14160 = molecular target: SCRIB_2, Q14160
MAGI2_2, Q86UL8 = molecular target: MAGI2_2, Q86UL8
[1] = plain residues with an end cap or a label only (N-terminal biotin on a linker: ttds)
[2] = plain residues with an end cap or a label only (N-terminal biotin on a linker: ado-ado)
[3] = plain residues with an end cap or a label only (N-terminal biotin on a linker: ahx)

CASK, O14936, sequence (O14936 487-570): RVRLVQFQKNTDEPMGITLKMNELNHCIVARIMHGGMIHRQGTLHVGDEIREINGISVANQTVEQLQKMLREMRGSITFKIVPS
MAGI2_2, Q86UL8, sequence (Q86UL8 410-522): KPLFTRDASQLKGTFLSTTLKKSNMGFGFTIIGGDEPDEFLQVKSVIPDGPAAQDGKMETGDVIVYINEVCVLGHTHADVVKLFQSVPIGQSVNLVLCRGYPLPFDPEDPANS
Inadl_10, Q8NI35, sequence (Q8NI35 1673-1763): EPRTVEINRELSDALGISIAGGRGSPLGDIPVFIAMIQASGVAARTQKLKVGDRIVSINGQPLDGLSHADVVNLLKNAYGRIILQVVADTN
PDLIM1, O00151, sequence (O00151 1-87): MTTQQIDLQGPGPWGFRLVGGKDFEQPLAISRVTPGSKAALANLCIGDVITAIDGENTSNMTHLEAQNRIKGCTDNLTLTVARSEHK
MAGI1_1, Q96QZ7, sequence (Q96QZ7 1-106): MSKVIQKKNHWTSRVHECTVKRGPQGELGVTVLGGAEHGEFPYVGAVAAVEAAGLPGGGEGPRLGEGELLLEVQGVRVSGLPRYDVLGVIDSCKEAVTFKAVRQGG
Inadl_1, Q8NI35, sequence (Q8NI35 113-229): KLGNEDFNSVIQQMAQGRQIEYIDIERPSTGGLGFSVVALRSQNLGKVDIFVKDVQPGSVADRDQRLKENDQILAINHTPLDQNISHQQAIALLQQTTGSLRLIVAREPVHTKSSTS
GIPC2, Q8TF65, sequence (Q8TF65 112-203): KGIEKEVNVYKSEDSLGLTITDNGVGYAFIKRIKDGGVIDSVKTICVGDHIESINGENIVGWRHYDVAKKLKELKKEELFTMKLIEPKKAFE
Inadl_5, Q8NI35, sequence (Q8NI35 673-780): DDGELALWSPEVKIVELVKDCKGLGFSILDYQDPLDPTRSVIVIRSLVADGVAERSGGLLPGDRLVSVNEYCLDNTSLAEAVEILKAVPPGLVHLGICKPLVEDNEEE
TJP2_1, Q9UDY2, sequence (Q9UDY2 24-128): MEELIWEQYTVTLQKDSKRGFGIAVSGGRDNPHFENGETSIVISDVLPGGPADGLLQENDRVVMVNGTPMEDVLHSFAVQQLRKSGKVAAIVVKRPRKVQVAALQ
GRID2IP_1, A4D2P6, sequence (A4D2P6 1-87): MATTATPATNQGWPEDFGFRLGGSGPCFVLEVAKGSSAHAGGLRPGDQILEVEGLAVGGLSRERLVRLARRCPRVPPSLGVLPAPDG
SCRIB_1, Q14160, sequence (Q14160 718-814): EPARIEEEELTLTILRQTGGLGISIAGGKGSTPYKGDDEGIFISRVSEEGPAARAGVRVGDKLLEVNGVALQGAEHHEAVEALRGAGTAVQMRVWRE
MAGI2_3, Q86UL8, sequence (Q86UL8 600-682): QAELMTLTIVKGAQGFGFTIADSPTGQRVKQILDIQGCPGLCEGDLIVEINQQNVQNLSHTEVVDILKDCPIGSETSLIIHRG
FRMPD2_3, Q68DX3, sequence (Q68DX3 1073-1166): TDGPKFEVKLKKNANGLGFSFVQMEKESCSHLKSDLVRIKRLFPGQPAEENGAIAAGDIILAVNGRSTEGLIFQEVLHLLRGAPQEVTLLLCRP
IL16_3, Q14005, sequence (Q14005 1107-1207): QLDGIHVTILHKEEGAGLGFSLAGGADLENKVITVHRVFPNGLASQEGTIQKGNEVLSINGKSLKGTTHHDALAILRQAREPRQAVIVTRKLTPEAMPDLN
GRIP2_3, Q9C0E4, sequence (Q9C0E4 238-339): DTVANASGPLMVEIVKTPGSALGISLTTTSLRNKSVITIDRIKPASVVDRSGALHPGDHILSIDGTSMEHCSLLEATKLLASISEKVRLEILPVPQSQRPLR
SCRIB_2, Q14160, sequence (Q14160 857-960): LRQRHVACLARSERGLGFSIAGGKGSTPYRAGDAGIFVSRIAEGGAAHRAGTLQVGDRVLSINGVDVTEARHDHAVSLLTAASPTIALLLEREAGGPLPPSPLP
GRASP, Q7Z6J2, sequence (Q7Z6J2 96-193): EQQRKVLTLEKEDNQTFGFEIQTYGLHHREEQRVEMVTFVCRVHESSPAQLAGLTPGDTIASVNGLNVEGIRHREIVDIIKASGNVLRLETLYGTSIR

RTRQRNETQV [HPV51-E6, P26554]
pKd (SCRIB_1, Q14160; [1]): 4.56 | pKd (PARD3B_1, Q8TEW8; [1]): below the threshold | pKd (GRID2IP_1, A4D2P6; [1]): below the threshold | pKd (TJP2_1, Q9UDY2; [1]): below the threshold | pKd (CASK, O14936; [1]): below the threshold | pKd (DFNB31_1, Q9P202; [1]): 3.47 | pKd (FRMPD1, Q5SYB0; [1]): below the threshold | pKd (DLG3_1, Q92796; [1]): 4.28 | pKd (IL16_3, Q14005; [1]): below the threshold | pKd (DLG2_3, Q15700; [1]): 4.75 | pKd (MPDZ_5, O75970; [1]): below the threshold | pKd (GRIP2_3, Q9C0E4; [1]): below the threshold | pKd (Inadl_10, Q8NI35; [1]): below the threshold | pKd (DFNB31_2, Q9P202; [1]): below the threshold | pKd (GRASP, Q7Z6J2; [1]): below the threshold | pKd (MAGI1_1, Q96QZ7; [1]): below the threshold | pKd (PDLIM1, O00151; [1]): below the threshold | pKd (LIN7A, O14910; [1]): below the threshold | pKd (MAGI2_3, Q86UL8; [1]): 4.02 | pKd (Inadl_5, Q8NI35; [1]): 3.4 | pKd (NHERF3_1, Q5T2W1; [1]): 4.17 | pKd (GIPC2, Q8TF65; [1]): 3.63 | pKd (Inadl_1, Q8NI35; [1]): below the threshold | pKd (MPDZ_10, O75970; [1]): below the threshold | pKd (FRMPD2_3, Q68DX3; [1]): below the threshold | pKd (RADIL, Q96JH8; [1]): 3.82 | pKd (SCRIB_2, Q14160; [1]): 4.39 | pKd (MAGI2_2, Q86UL8; [1]): 6.66

EEPEERHTEL [CES2, O00748]
pKd (SCRIB_1, Q14160; [2]): 4.21 | pKd (PARD3B_1, Q8TEW8; [2]): 3.71 | pKd (GRID2IP_1, A4D2P6; [2]): below the threshold | pKd (TJP2_1, Q9UDY2; [2]): below the threshold | pKd (CASK, O14936; [2]): below the threshold | pKd (DFNB31_1, Q9P202; [2]): 3.6 | pKd (FRMPD1, Q5SYB0; [2]): below the threshold | pKd (DLG3_1, Q92796; [2]): below the threshold | pKd (IL16_3, Q14005; [2]): below the threshold | pKd (DLG2_3, Q15700; [2]): 3.78 | pKd (MPDZ_5, O75970; [2]): below the threshold | pKd (GRIP2_3, Q9C0E4; [2]): below the threshold | pKd (Inadl_10, Q8NI35; [2]): below the threshold | pKd (DFNB31_2, Q9P202; [2]): below the threshold | pKd (GRASP, Q7Z6J2; [2]): 4.62 | pKd (MAGI1_1, Q96QZ7; [2]): 3.5 | pKd (PDLIM1, O00151; [2]): 3.59 | pKd (LIN7A, O14910; [2]): below the threshold | pKd (MAGI2_3, Q86UL8; [2]): below the threshold | pKd (Inadl_5, Q8NI35; [2]): below the threshold | pKd (NHERF3_1, Q5T2W1; [2]): 4.72 | pKd (GIPC2, Q8TF65; [2]): below the threshold | pKd (Inadl_1, Q8NI35; [2]): below the threshold | pKd (MPDZ_10, O75970; [2]): below the threshold | pKd (FRMPD2_3, Q68DX3; [2]): below the threshold | pKd (RADIL, Q96JH8; [2]): below the threshold | pKd (SCRIB_2, Q14160; [2]): 3.79 | pKd (MAGI2_2, Q86UL8; [2]): below the threshold

GGPKEEESPV [SLC16A1, P53985]
pKd (SCRIB_1, Q14160; [1]): 5.18 | pKd (PARD3B_1, Q8TEW8; [1]): below the threshold | pKd (GRID2IP_1, A4D2P6; [1]): below the threshold | pKd (TJP2_1, Q9UDY2; [1]): below the threshold | pKd (CASK, O14936; [1]): below the threshold | pKd (DFNB31_1, Q9P202; [1]): 3.5 | pKd (FRMPD1, Q5SYB0; [1]): below the threshold | pKd (DLG3_1, Q92796; [1]): below the threshold | pKd (IL16_3, Q14005; [1]): below the threshold | pKd (DLG2_3, Q15700; [1]): below the threshold | pKd (MPDZ_5, O75970; [1]): below the threshold | pKd (GRIP2_3, Q9C0E4; [1]): below the threshold | pKd (Inadl_10, Q8NI35; [1]): below the threshold | pKd (DFNB31_2, Q9P202; [1]): below the threshold | pKd (GRASP, Q7Z6J2; [1]): below the threshold | pKd (MAGI1_1, Q96QZ7; [1]): below the threshold | pKd (PDLIM1, O00151; [1]): below the threshold | pKd (LIN7A, O14910; [1]): below the threshold | pKd (MAGI2_3, Q86UL8; [1]): below the threshold | pKd (Inadl_5, Q8NI35; [1]): below the threshold | pKd (NHERF3_1, Q5T2W1; [1]): 3.63 | pKd (GIPC2, Q8TF65; [1]): below the threshold | pKd (Inadl_1, Q8NI35; [1]): below the threshold | pKd (MPDZ_10, O75970; [1]): below the threshold | pKd (FRMPD2_3, Q68DX3; [1]): below the threshold | pKd (RADIL, Q96JH8; [1]): below the threshold | pKd (SCRIB_2, Q14160; [1]): below the threshold | pKd (MAGI2_2, Q86UL8; [1]): below the threshold

QGRWDHETIV [TMEM215, Q68D42]
pKd (SCRIB_1, Q14160; [3]): 4.11 | pKd (PARD3B_1, Q8TEW8; [3]): 3.57 | pKd (GRID2IP_1, A4D2P6; [3]): below the threshold | pKd (TJP2_1, Q9UDY2; [3]): 3.68 | pKd (CASK, O14936; [3]): below the threshold | pKd (DFNB31_1, Q9P202; [3]): 3.86 | pKd (FRMPD1, Q5SYB0; [3]): below the threshold | pKd (DLG3_1, Q92796; [3]): 4.34 | pKd (IL16_3, Q14005; [3]): below the threshold | pKd (DLG2_3, Q15700; [3]): 4.53 | pKd (MPDZ_5, O75970; [3]): below the threshold | pKd (GRIP2_3, Q9C0E4; [3]): below the threshold | pKd (Inadl_10, Q8NI35; [3]): 3.64 | pKd (DFNB31_2, Q9P202; [3]): below the threshold | pKd (GRASP, Q7Z6J2; [3]): below the threshold | pKd (MAGI1_1, Q96QZ7; [3]): below the threshold | pKd (PDLIM1, O00151; [3]): below the threshold | pKd (LIN7A, O14910; [3]): below the threshold | pKd (MAGI2_3, Q86UL8; [3]): 3.77 | pKd (Inadl_5, Q8NI35; [3]): 3.63 | pKd (NHERF3_1, Q5T2W1; [3]): 4.07 | pKd (GIPC2, Q8TF65; [3]): 3.81 | pKd (Inadl_1, Q8NI35; [3]): below the threshold | pKd (MPDZ_10, O75970; [3]): below the threshold | pKd (FRMPD2_3, Q68DX3; [3]): 3.97 | pKd (RADIL, Q96JH8; [3]): 4.83 | pKd (SCRIB_2, Q14160; [3]): 4.08 | pKd (MAGI2_2, Q86UL8; [3]): 4.08
